Values belong to the molecule of their own block, whether it stands above or below them.
Key:
[1] = target: human PD-L1, full-length, expressed on transfected Expi293F cells (human) (UniProt Q9NZQ7); assay: flow cytometry, PD-L1-transfected Expi293 cells
[2] = target: human PD-L1, full-length, expressed on transfected Expi293F cells (human) (UniProt Q9NZQ7); assay: flow cytometry, PD-L1-transfected cells; MFI over WT CD80 ECD-Fc
[3] = target: human PD-L1 (human) (UniProt Q9NZQ7); assay: flow cytometry, transfected cells
[4] = target: human CTLA-4 (human) (UniProt P16410); assay: flow cytometry, transfected cells
[5] = target: human CD28 (human) (UniProt P10747); assay: flow cytometry; ratio to WT stack m3
[6] = target: human CD28 (human) (UniProt P10747); assay: flow cytometry on transfected cells

UniProt P16410, sequence (P16410 36-223): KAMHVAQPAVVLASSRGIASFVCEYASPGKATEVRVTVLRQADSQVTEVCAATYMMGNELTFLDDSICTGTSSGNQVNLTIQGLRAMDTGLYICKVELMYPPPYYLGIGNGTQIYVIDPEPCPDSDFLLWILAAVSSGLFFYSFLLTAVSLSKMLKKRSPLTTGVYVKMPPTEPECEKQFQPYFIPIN

MFI [1]: 9 MFI
MFI parental ratio [2]: 0.13
Molecule: variant CD80 ECD-Fc fusion V20L/L70Q/A91S/I118V/T120S/T130A

MFI [3]: 100000
MFI [4]: 2180
Molecule: variant CD80 ECD-Fc H18L/R29D/Y31L/Q33H/K36G/M38I/T41A/M43R/M47T/E81V/L85R/K89N/A91T/F92P/K93V/R94L/L97R/T130A/N149S (Fc fusion)

MFI [1]: 9 MFI
Molecule: variant CD80 ECD-Fc fusion A91G/S103P

WT parental MFI ratio [5]: 0.57
MFI [6]: 938 MFI
B1: Domain 1: CD80 I67T/L70Q/A91G/T120S / Domain 2: CD80 E88D/K89R/D90K/A91G/F92Y/K93R / Fc (Fc fusion)
chain: VIHVTKEVKEVATLSCGHNVSVEELAQTRIYWQKEKKMVLTMMSGDMNIWPEYKNRTIFDITNNLSTVIQALRPSDEGTYECVVLKYEKDGFKREHLAEVTLSVKADFPTPSISDFEIPGGGGSGGGGSGGGGSVIHVTKEVKEVATLSCGHNVSVEELAQTRIYWQKEKKMVLTMMSGDMNIWPEYKNRTIFDITNNLSIVILALRPSDEGTYECVVLKYDRKGYRREHLAEVTLSVKADFPTPSISDFEIPGGGGSGGGGSAAAEPKSSDKTHTCPPCPAPELLGGPSVFLFPPKPKDTLMISRTPEVTCVVVDVSHEDPEVKFNWYVDGVEVHNAKTKPCEEQYGSTYRCVSVLTVLHQDWLNGKEYKCKVSNKALPAPIEKTISKAKGQPREPQVYTLPPSREEMTKNQVSLTCLVKGFYPSDIAVEWESNGQPENNYKTTPPVLDSDGSFFLYSKLTVDKSRWQQGNVFSCSVMHEALHNHYTQKSLSLSPGK
